Results taken from patent publication US20240409617A1 (published 2024).

B1: Ab 36 (scFv, V domains shown)
VH: QVQLQQSGPGLVKPSQTLSLTCAIFGDSVTSNSAAWNWIRQSPSRGLEWLGRTYYSSKWYNDYAVSVKSRVTINADTSKNQLSLQLNSVTPEDTAVYYCARGWLRLSFDPWGQGTLVTVSS
VL: NFMLTQPHSVSESPGKTVTISCTGSSGSIASNYVQWLQQRLGSAPTTVIYEDNQRPSGVPDRFSGSIDSSSNSASLTISGLKTEDEADYYCQSYDPNNHGVVFGGGTKLTVL
B2: Ab 38 (scFv, V domains shown)
VH: QVTLKESGPTLVKPTQTLTLTCTFSGFSLTTSGVSVGWIRQPPGKALEWLALIHWDDDKRYSPSLRSRLTITRDTSKNQVVLTVTDMDPADTGTYYCASFIMTVYAEYFEDWGQGTLVTVSS
VL: EIVLTQSPATLSVSPGERATLSCRASQSVSSNLAWYQQKPGQAPRLLMYDVSTRATGIPARFSGSGSGTEFSLTISSLQSEDFAVYYCQQRGAWPLTFGGGTKVEIK
B3: Ab 31 (scFv, V domains shown)
VH: QVQLVQSGAEVKKPGSSVKVSCKASGGTFSSYTISWVRQAPGQGLEWMGGIIPILGTPNYAQKFQDRVAITADKSTSTAYMELSSLRSEDTAVYYCAVGSGWYSGFDYWGQGTLVTVSS
VL: NFMLTQPHSVSESPGKTVTISCTGSSGSIASNYVQWYQQRPGSAPTTVIYEDSQRPSGVPDRFSGSIDSSSNSASLTISGLKTEDEADYYCQSFHNSNPVIFGGGTKLTVL
B4: Ab 34 (scFv, V domains shown)
VH: QVQLVQSGVEVKKPGESLKISCKGSGYSFTSYWIGWVRQMPGKGLEWMGIIYPGDSDTRYSPSFQGQVTISADKSISTAYLQWSSLKASDTAMYYCARTTYSYGSFDYWGQGTLVTVSS
VL: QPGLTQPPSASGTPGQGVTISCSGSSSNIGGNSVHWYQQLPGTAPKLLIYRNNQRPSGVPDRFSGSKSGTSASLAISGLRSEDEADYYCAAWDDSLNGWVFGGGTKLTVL
B5: Ab 8 (scFv, V domains shown)
VH: QVQLVQSGAEVKKPGSSVKVSCKASGGTFSSYAISWLRQAPGQGLEWMGWINPNSGGTNYAQKFQGRVTMTRDTSISTAYMELSRLRSDDTAVYYCARGSGGYYLGWGQGTLVTVSS
VL: QPGLTQPPSVSKGLRQTATLTCTGNSNNVGNQGAAWLQQHQGHPPKLLSYMNNNRPPGISERFSASRSGNTASLTITGLQPEDEADYYCSAWDSSLSRWVFGGGTKLSVL
B6: Ab 13 (scFv, V domains shown)
VH: QVTLKESGPKLVKPTQTLTLTCTFSGFSLSTSGVGVGWIRQPPGKALEWLALIYWDDDKRYSPSLKSRLTIAKDTSKYQVVLTMTNMDPVDTATYYCARISGSGYFYPFDIWGQGTMVTVSA
VL: NFMLTQPHSVSESPGKTVTISCTRSSGSIASNYVQWYQQRPGSAPTTVIYEDNQRPSGVPDRFSGSIDSSSNSASLTISGLKTEDEADYYCQSYDSSNLWVFGGGTKLTVL
B7: Ab 16 (scFv, V domains shown)
VH: QVQLVQSGGGVVQPGRSLRLSCAASGFTFSNYGMHWVRQAPGKGLEWVALIWERGSKKDYADSVKGRFTVSRDNSKNTLYLQMNSLRPEDTAVYFCAREGISMTGAEYFQHWGQGTLVTVSS
VL: QSVLTQPPSVSGSPGQRVTMSCTGSSSNIGAGYDVHWYQQVPGAAPRLLIYGTNNRPSGVPDRFSGSKSGTSASLTITGLQAEDEADYYCQSYDNSLTDPYVFGTGTKVTVL
B8: Ab 17 (scFv, V domains shown)
VH: QVQLVQSGGGVVQPGRSLRLSCAASGFTFDDYAMHWVRQVPGKGLEWVSGIDWNSGVIGYADSVKGRFTISRDNVKNSLYLQMNSLRTEDSALYYCAKDIGPGGSGSYYAFDIWGQGTTVTVSS
VL: QSALTQPASVSGSPGQSITISCTGTSSDVGGSKYVSWYQQHPGKAPKVMIYDVTKRPSGVPDRFSGSKSGNTASLTISGLQAEDEADYYCAAWDDSLNGVVFGGGTKLTVL
B9: Ab 29 (scFv, V domains shown)
VH: QVQLQQSGPGLVKPSQTLSLTCAISGDSVSSYSDAWNWIRQSPSRGLEWLGRTYYRSKWYNDYAVSVKSRITINPDTSKNQFSLQLSSVTPEDTAVYYCAREIVATTPFRNYYYGMDVWGQGTTVTVSS
VL: NFMLTQPHSVSESPGNTVTISCTRTSGSIASNYVQWYQQRPGSSPTTVIFQDKLRPSGVPDRFSGSIDSSSNSASLTISGLKTEDEADYYCQSYDSSSLWVFGGGTKLTVL
B10: Ab 21 (scFv, V domains shown)
VH: QVQLVQSGGGLVQPGGSLRLSCATSGFTFDDYAMHWVRQAPGKGLEWVSGISWNSGSIGYVDSVKGRFTISRDNRNNKVYLQMNNLRAEDTAVYYCARDWWGSIDHWGLGTLVTVSS
VL: QSALTQPRSVSGSPGQSVTISCTGTSSDVGGYDYVSWYQQHPGKAPKLIIYDVSKRPSGVPDRFSGSKSGNTASLTVSGLQAEDEADYYCSSYTSSSPVVFGGGTKLTVL
B11: Ab 32 (scFv, V domains shown)
VH: QVQLVQSGAEVKKPGESLKISCKGSGYSFTSYWIGWVRQMPGKGLEWMGIIYPGDSDTRYSPSFQGQVTISADKSISTAYLQWSSLKASDTAMYYCARGWQWHDYWGQGTLVTVSS
VL: QTVVTQEPAVSVALGQTVRITCQGDSLRSYYASWYQQKPGQAPVLVVYDKDKRPSGIPDRFSGSTSGNTASLTITGAQAEDEADYYCNSRDRSDNHVVFGGGTKLTVL
B12: Ab 20 (scFv, V domains shown)
VH: QVQLVQSGGGSVKPGGSLRLSCAASGYRLSDYYMHWVRQAPGKGLEWVANIKQDGSEKYYVDSVKGRFTISRDNAKNSLYLQMNSLRAEDTAVYYCARVRGWSRGYFDYWGQGTLVTVSS
VL: NFMLTQPHSVSESPGKTVTISCTGSSGSIASNYVQWYQQRPGSAPTTVIYEDNQRPSGVPDRFSGSIDSSSNSASLLISGLKTEDEADYYCQSYDSSNHWVFGGGTKLTVL
B13: Ab 18 (scFv, V domains shown)
VH: EVQLVQSGGGVVQPGRSLRVSCAASGFSFSRYGMHWVRQAPGKGLEWVAFIRHDGSKKYYADSVEGRFTISRDNSRNTVSLEMNSLRGEDTAVYYCAKDGRLEAALDDWGQGTLVTVSS
VL: NFMLTQPHSMSGSAGKTVTVSCIRSSGSIANNFVQWYQQRPGSAPTTVIYEDNQRPSGVPDRFSGSIDSSSNSASLTISGLKTEDEADYYCQSYDSSNLVFGGGTRLTVL
B14: Ab 37 (scFv, V domains shown)
VH: QVQLVQSGAEVKKPGASVKVSCKASGYTFTSYGISWVRQAPGQGLEWMGWISTYNGNTNYAQKLQGRVTMTTDTSTSTAYMEVRSLRSDDTAVYYCARDVFGHFDYWGQGTLVTVSS
VL: NFMLTQPHSVSESPGKTVLISCTRSSGNIATNYVQWYQQRPGSAPTTVIYEDNQRPSGVPDRFSGSIDSSSNSASLTISGLKTEDEADYYCKSYDDGNHVFGGGTKLTVL
B15: Ab 39 (scFv, V domains shown)
VH: QVTLKESGPTLVKPTQTLTLTCTLSGVSLDTIGMRVSWIRQPPGKALEWLARIDWDDDKFYSTALKTRLTISKDTSKNQVVFTMTSMDPVDTATYYCARSGLLYDLDVWGRGTLVTVSS
VL: QSVVTQPPSVSGAPGQRVTISCTGSDSDIGANFVQWYQQLPGTAPKLLIWRNTNRPSGVPDRFSASKSGTSASLAITGLQAEDEADYFCQSYDSSLSAYVFGGGTKVTVL

How the values were obtained:
S1 = test: BLI
S1-biotin(ACRO) = test: BLI

Row | Binder | Kd (S1) | Kd (S1-biotin(ACRO))
1 | B1 | 0.0306 nM | –
2 | B2 | 0.22 nM | –
3 | B3 | 2040 nM | –
4 | B4 | 0.184 nM | –
5 | B5 | 325 nM | –
6 | B6 | 1.14 nM | 1.14 nM
7 | B7 | 2.18 nM | 2.18 nM
8 | B8 | 0.716 nM | 0.716 nM
9 | B9 | < 0.001 nM | –
10 | B10 | 1.28 nM | 1.28 nM
11 | B11 | 0.168 nM | –
12 | B12 | 5.01 nM | 5.01 nM
13 | B13 | 0.121 nM | 0.121 nM
14 | B14 | 0.907 nM | –
15 | B15 | < 0.001 nM | –
